Here are results for one substance from paper PMC11190491.

In the assay the target is peptide on cattle MR1 (cattle). Briefly: data from (80); method not given; cattle MR1 without riboflavin-based antigen.

In turn, A-F7 MAIT TCR registered a Kd of 30 µM.
